Measurements: paper PMC8531726

Tested on: T1, Zur (Pseudomonas aeruginosa), ORF:f39b2fc0
T1 sequence: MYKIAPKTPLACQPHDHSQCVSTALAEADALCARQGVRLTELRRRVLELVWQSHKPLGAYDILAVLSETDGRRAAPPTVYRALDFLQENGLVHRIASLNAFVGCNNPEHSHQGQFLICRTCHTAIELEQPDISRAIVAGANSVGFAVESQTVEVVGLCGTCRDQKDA
Assay: EMSA
Conditions: EMSA: 30 ng DNA, 500 nM Zur, 5X Zn-less binding buffer (50 mM Tris, 200 mM KCl, 50 mM MgCl2, 5 mM DTT, 25% glycerol; 5X [sic], pH not given), 5 uM ZnCl2 …

Sequence | binding
ACTTTCCCGTTCCTCTTCGCCGGCAGGCATGCGGACATTGCCGCTGCACGTCGGCACGACGCCATGCAGAGTGGCTACGCGGGTCTACCGACACAAAAAGAAATAATATAACATCCCAATAAATACGCCGATCCGACCCCGTCGCCCTTCCTCCGGGAAGGGCCTGGGTTCGCTTTGGCCTGAAAAAAGTCCGACCCA (double strand) [pznuD] | binds
AGAAGTCCTGCTGGGCTTCGTCCATGTAGGCAGCGTCGGGCTGGGCAAGCAGTTCCTGTTCGGTCATGGGCTGAACCTGGGAAATTTAAAACGTTATACTATAACAATTAACACCACAATCGATGGCCCGCCAATCGCCTTCCGGCTACCCTGGGCCCACGTCATCCCGGGATCCACCGATGCGCCGCGTCCTCCGCCTTTACT (double strand) [pdksA2] | binds
ATGGGCCTGGGCGGCGAACGGCAGCAAGACGAGGGCTAACAGCAGTGGGCGCATGAACGGGACTCCGGCAAGGAAGGAAAAGAGTTTGTTACGTTATAACGAATTTTTCCGCCTGCCTAGCCTGGCCGATTTGGCCCCTACGCGCCGACGTGGGAGCATGGCGCGATTCGCTTGTGGAGAAAC (double strand) [pPA4063] | binds
CATAGCAGGCCGGCGTGAAGAAAATGTGATGACCCGGGAAGCTGCGCCAGGGCGTGGGGTCCGGCGAAGAAAGACTGCACAAGCGAATTGTTATAGTATAACATTTTATTCAATCCAGATCGTTCAAGGCTTGACTGGAAACGGTGCGGATGTTCCCATCCGGCCCGTTCCAGGTGCCTCCTGCCGCCGCGCAGGAGGTGAAACGGGAAGCCGGTGCGTCACTTCGGTGA (double strand) [pPA2911] | binds
CTCTGCCAGACCAGTTCCAGCACGCGCCGCCGCAGTTCGGTCAGGCGCACGCCCTGGCGCGCGCACAGCGCATCGGCCTCGGCCAGCGCGGTGCTGACGCACTGGCTGTGGTCATGGGGCTGGCAGGCCAGCGGGGTCTTGGGCGCAATCTTGTACATGGGCTGCGACGCTCGAGGGTAGAGACGTTATTATATTACCCGCTAACCACCTTTCA (double strand) [pznuA] | binds
GAGCGCCATGATCTGCTCGGTTGCGGTCATCTTTCCTCCTGGGGGGCATGCCCGGTTGAGAGTGGGGTCCTGTGCTTCGAGGGATACGGCGAGCGAGACGTTCCCTCGCCTCGATGAAGAAGAAACGGCGGGCATTCTTCATTCGAAGAAATGTTATGTTATAACTTATAAGTATTTATAATTCATACCTGCCGACCATGACCCCCCATTCCTCCCCGCACCGTCTTCCTCCGCTGCGGCTGGCCCGCGCCGTGCCGTTCCTCTACCTGCTTC (double strand) [pPA1922] | binds
GGCTGGGCTGGTCGTCGGAAAAGAGGGATGAGTATCACAGCCTGGCGGCGAGAAGCGAGATAGAGCCGGGCATTGTATTGCGAGGCCGGAATCGAACTGGTAGCGTTATAGTATATCATTTCTTTTCTGGTGCGATTTCCCATGAGAGTCAGTGTGTCGCTTGTCCTCGGTGTCGGCCTCGGTTGCAGCAGTCCGGCGCTCTGGGCGGAAACGGAAAGTCCCGCGG (double strand) [pzrmA] | binds
GTGCTGCACACAGACTCTCGTCTTCCAGTCAAGAGCCTTGGGATGCAGACTGTTTTTCAAATCATGACAACTTCTTAACGCGCATTGTTATAAAGTTGCGGGCGTTTGCGCCGGCCTGGCCGGTACCTTCGAGTTTTGCCTGGAGTGAAGATGAGAGTCGACCTGGAC (double strand) [pPA2439] | binds
TCGAGCAGCCGAATGGTCGCCGGGAACTCTTTCCGGAGTTGCGAATTATTCTTATCGGAGTAATATGTAACTATATAACATTATGTAGGAGGCATCCCCATGAAACCCGGCATCCATCCCGAATACCGTCCCGTCCTGTTCCATGACACCTCGGCCGACGTGTACTTCCTGATCGGCTCCACC (double strand) [prpmE2] | binds
